The values that follow come from the NTF2 design screens of Basanta et al. (2020).

The data set in a line: protease stability score; higher = more stable; yeast display proteolysis, trypsin and chymotrypsin.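 Further: relative to predicted unfolded state with 0 unfolded-like and 1 meaning tenfold more protease.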
Take “DREENEIREFIEKLVDAHLTGNFELMDELADPNVRIEIGDKRYHGREEYLRLMHELRIHHVEIDHIEWYNGQVHMHGTVDGVVDGRRHRIHTEMTVEKVNGRWILTEERQL”: the protease stability score turned out to be 1.69.

Take “SEEEHMIELIVKWYSRALETGDEEELAEMLDPNTRLDVDGKDIHGRENILKRRKKHLDHLGHERIEIHFDVSHIDYIGDKVIIHVKLILHYNGREIHLDVKMLIVKINGRWRFRHFESK”: the protease stability score was determined as 1.93.

Turning to “SHLEEDAEKALRHLIHLFYTGDEKTLHNLADPNTRFRIGDKEYHGMEYILEFWLHIRLEDFDVERMSVQGDKIHIDSRMTLHFNGRSREIEVHILLLKYNGVWRIEEVRIH”, the protease stability score was determined as 1.24.

“DEEHEHAKRAVKKTLTDYYTGDEDSISDLADPNVIQDVGDKEYHGREEFLRSMHKIIKWLGVDHIEVHRVHLINGRVFSRLRLEVDGREVELIIIILKINGRWHWHSMRIIHR” had a protease stability score of 1.03.

Sequence “DEDEREVKHWLKILLHELWTGDFRNVSRLMDPHARLLINGVTVVGREEFLEVLRRVDHIELRIRDMKVIDGRIHAETELIEHFDGRTFIHDTHMRAKKVDGRWRIESIEIR” had a protease stability score of 1.31.

Take “GDSEKDAERAIDIFLDTVRTGDERLIHELLDPTTILQVGDKQFHGREEADKWWHELLRKLGHTNIEMEVRDMKVQGDKVHLDTELRFNGRSTRIHVVIIKVNGRWLIEHIEIK”: the protease stability score is 1.23.

In the case of “HEEQELLEEFVEKLRQTLETGDEHFTRELLDPNVRYVQGDKEWHGRDLAAELNKKLGIKVVDIKHVRYWNGRLDLRGEDQVGDKTTHTILHVDKFNGRWFYKEVIFV”, the protease stability score was found to be 0.721.

Regarding “SEDEDAFNELLKIHVEALHTGDWRSIRELLDPNARVRIDGKEYVGRESVEEHLRRIKNLTIHEIRIDDIRIQGDYVHVDGHVRGHFNGQEELHHVEFIMLKVNGRWRIKEIRIK”, the protease stability score amounted to 2.26.

“DERDEQAEEAMKIWIHSVQTGNEDLLRRLVDPHVRITVGDKEIHGREQFAEYYHRLVTELRIHIHIHRITVINGQVHSHVEIRIQIGDKEISFETRMFILKVDGVWLFKREEVT”: the protease stability score amounted to 0.744.

“DHEDHLSELAEHLIHHHWLTGDEHLLERMADPHAQIIIGDKHLHGREEVSRWLIEFMHKFKNMRLQIDHRHLIDGRLHVEVTINIGDKRLKVHRHSIKINGQWHLKSIIIE” came in with a protease stability score of 1.09.

Regarding “DEDHDIIREALERWRHYVHTGDWRSLLKMMDPHVRNDVDGVDIIGREEASRYYREVFERLGVDHIDIHLRDMQIQGDKVTVHSELELNYNGRRFMHDIEIISVKVDGRWSIRSVFSK”, the protease stability score is 1.41.

On to “DEHEEEVLRIARDFLEALRTGDEEHMTELMDPHVRLEVDGRDLHGREEVLRLLVEQWERIKNVTWEVERLEIVNGRLIIQLRVHVNGQNHDVRLYINVVDGVVKSIRHEKH”, for which the protease stability score was found to be 1.47.

“DEEDEYVEKATRFFIKSILTGNEEWVSRLADPHVRLWVGDKEFHGRERYVRVFHEHMRQIRYRDFKLHDIDRQGDKIIVIGRREVEVDGRIDTYEIHIYARKINGRWILESEIVN” displayed a protease stability score of 0.936.

On to “SDLDHQARRALEETFKAFETGDEHTWNRLVDPHVRLNVNGQEFHGMELIREWFKQDRDELRLKTIELKRVSVQGDYVHIDSTYYYEYNGQHRILEVHIHAVKFDGRWVVKRIHIH”, for which the protease stability score was found to be 0.662.

Sequence “DEDEELAKKFIEEWHESVLTGDEDSLRKLADPNMKVNVDGRHMVGWEYYKHLLERIDHLTSIEIKRLRVIDGVIDTDVRMDITFDGKRHLLETQLIVLKVNGRWHLRSISMK” registered a protease stability score of 1.36.

In turn, “DEETKLNHLAIRLWLQSVMTGNEELQTKLIDPHVRNHIDGREYHGREVFRENLRDLWEKYGVKHVELTHEHSQGEKVHLRFKVDVNGRELDHKIIAHKIDGRWLDHSIHFH” displayed a protease stability score of 0.611.

In the case of “DEQEESTRIAMELVLRSLKTGDERTVSELVDPNVRYEQGDKEYHGWESASEVVRRLGVDHFIIHDIKIQGNKLHLHGELVVGDYTLKYHIIVLKVNGRWQITRMHTI”, the protease stability score was determined as 1.2.

In turn, “DELEKLLRYWLREFFDALLTGDEEIFTRYMDPEARLIVDGVEYHGREEVLKHLRDKLREIRIKDYVIHSLDFVNGRIHVDVRQDVVIGEKREKTRLHIHIDVIDGKNHELDIEWR” returned a protease stability score of 2.1.

As to “SEDDEDLKFAWDHLLRSWLTGNFDFFKEMFDPHTRLEQGEKEHHGRNAFERYLRELGIDHIKNIHIEDVEIQGDKMRLHGRQHIFVNGREINLEVTYIILKINGQWHLHRVRIK”, the protease stability score was 0.846.

Regarding “TEEDELLDKLAEIFSKVLKTGDFDELLSLFDPHTRLEVRQGDKEFHYHGREEVVRFWRHVRNRIDHSQLELHDVKSVNGVANSDSEVILRVNGKEIRIHHILLFVVINGRSKMVVIEFR”, the protease stability score turned out to be 1.68.

“DSDQSKREMDKFLEMVSTGDPDEVNRLLDKDAHAHVGDQTYHGREEISHMWKELREKIDHLEVHDYKVNGNKLEVDMHATINGQNVVFTVVAVLRNGHFESVEVQYRSEEEEEKVKR” registered a protease stability score of 0.776.

“RDEDHELKEMRRMIHEIIMTGDEDKWKKMADPHVQLHIGDKHHHGRDHVSRILTELRVHHFDVEHIHHEFINGRATLRIEGTLHGIINGVEKKVETEIRIIIIKFNGVWYIESQEFHVI” showed a protease stability score of 0.492.

Take “SEFDRLSKEAVDILVHSLETGDWRSVSELFDPDYRLDVGDKRYHGREKVNEFMRHMGIKHVEIKRIHLQGDKAHIDSRMLVDGREFITHVIMEKVNGRWVITHISIE”: the protease stability score came out at 1.01.

For “DERFELFDWVVRLILHAHHTGDERIIHELADPNVRYIINGVTVHGRELMYRLAHEHLREIWVHHVQVRHFDVVGDFFRVEMEVVGLVNGVHYNEHRRLHLYVVNGRLKSSRIEIE”, the protease stability score worked out at 1.03.

“TEEHKFVKDFFIHMIRAWITGDEKELHRLFDPHTKVRIGDYVSHGMERTLEIWHKLWKELGFKHLEVREVRAQGDKSHTDVVYHVDGREKKVHIELEVFNGKATHLELDEK” registered a protease stability score of 0.519.

With “SEDDKVVEEIARLWLHWVLTGDEEHLRELLDPHVRLHIDGRTYIGREEFLHKFHELRIHRFELKSIHVIGDKAQVDGHQDYKYNGKRIHLDTKVDLVVVDGVMHEIHIHLK”, the protease stability score came out at 1.78.

“DEMDELAERIYETWVKRHLTGDEKVIEELMDPNVRIDIVVGDKKIHLIGRETASSFARRWFDHLRIDDMRMHSVETINGQIHSEVEVHRRIGDKERFILTRIEMHVINGKIHSIRLEIE” showed a protease stability score of 1.1.

Take “HEEETHWRSLTHLFAEWIITGNEDLYMELADPHYLIEIDGKTQHGRENANEVHETFWKDYGFKHRHVRSVRQVGDFVEIEVNLLFNGQRYDMHIHVFVIDGKLKEIHVSLK”: the protease stability score was determined as 1.33.

Sequence “DEEHHNAREMLKLFLDFMQTGDWESHLEMADPNVKVIIDGQEFIGRESSERLIREIRIKRHHLEEERIEVQGDKAIVRLRGRRDGNVNGVETETEVHIRIHFKKIDGRWVMTSVHIEVV” came in with a protease stability score of 1.75.

Sequence “DDRKEMSEEASEIFLHLLATGDERTERKLLDPHVRLIIGDKHLHGREEFVRFKHEEMRDLGVTNVEVREKDVKVYDGKIELHGHFNVNGKWVEIHVIAEKFNGRWILKRVNFH” displayed a protease stability score of 0.875.

“DEEEEMAHRLVEQHDEFIRTGDERINHELADPHAKVEIGDKEFIGRETFSKLMVEWRTREIRLTHIEVINGQVHLYQDVRVDYNGKEMHQHVRWDSLKINGKWFDHSVHIK” gave a protease stability score of 0.317.

The sequence “SEEEEMVKRLVEIIARMLETGDEDTLLELLDPEPRIEIGDKRFHGWEEFHKEEHKRLREMRVNSTHIEDVKVYNGRARIHLRIDGSIDGRRIEMRSHFIVQKINGRWSITSVIIR” returned a protease stability score of 1.52.

On to “DEEEKIMYHIFEVLIKLFLTGDFDTFTKMLDPNVYWNINGQENHGRDKVREALKLWIERFKNRTFDIKITDMRVQGEKTTLHTRLHVEVDGRHLEHDTVIILIVVDGRIKTIVIHIH”, for which the protease stability score is 2.51.

Regarding “DEDKKLAHESFRIWLHWMRTGDEKMMEELMDPNTRTYFEGHSDHGRSAARQYANRIDHIHHIHVHHIEIQGDKVEVDGRLDGVVNGKRIDVRIVIESVKVNGKWIVRSIEEH”, the protease stability score was 1.41.
